# T1: human CD79b and CD20 co-expressed on the surface of B-lymphoma cell lines or primary B cells (human, UniProt P11836 1-297)
# T1 sequence 1: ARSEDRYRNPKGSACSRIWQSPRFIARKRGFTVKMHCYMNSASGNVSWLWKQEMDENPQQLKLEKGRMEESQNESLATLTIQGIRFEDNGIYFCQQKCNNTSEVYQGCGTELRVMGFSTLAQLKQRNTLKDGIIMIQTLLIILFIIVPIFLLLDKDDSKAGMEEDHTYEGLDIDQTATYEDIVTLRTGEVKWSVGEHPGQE
# T1 sequence 2: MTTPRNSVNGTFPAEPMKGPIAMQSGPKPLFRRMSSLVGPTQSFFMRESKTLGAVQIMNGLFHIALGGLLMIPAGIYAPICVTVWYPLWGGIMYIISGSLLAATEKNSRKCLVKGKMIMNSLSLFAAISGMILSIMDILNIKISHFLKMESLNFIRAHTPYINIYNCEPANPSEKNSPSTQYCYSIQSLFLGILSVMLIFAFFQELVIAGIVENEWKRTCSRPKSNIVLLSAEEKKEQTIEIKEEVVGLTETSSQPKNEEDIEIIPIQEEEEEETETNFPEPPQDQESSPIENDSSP
# T2: recombinant extracellular domain of human CD79b, short isoform (human, UniProt P40259 29-159)
# T2 chain: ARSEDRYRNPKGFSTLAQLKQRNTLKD
# T3: recombinant extracellular domain of human CD79b, long isoform (human, UniProt P40259 29-159)
# T3 construct: also called hu CD79b long
# T3 sequence: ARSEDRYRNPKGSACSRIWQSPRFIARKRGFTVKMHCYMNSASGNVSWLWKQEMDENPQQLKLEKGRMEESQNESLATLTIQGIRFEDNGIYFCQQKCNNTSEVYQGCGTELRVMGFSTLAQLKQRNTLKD
# T4: human CD20 on the cell surface (human, UniProt P11836 1-297)
# T4 construct: whole, on cells; On B-lymphoma lines, primary B cells, K562 CD20 or HEK293 transfectants; also called MS4A1; B-lymphocyte antigen CD20
# T4 sequence (looked up): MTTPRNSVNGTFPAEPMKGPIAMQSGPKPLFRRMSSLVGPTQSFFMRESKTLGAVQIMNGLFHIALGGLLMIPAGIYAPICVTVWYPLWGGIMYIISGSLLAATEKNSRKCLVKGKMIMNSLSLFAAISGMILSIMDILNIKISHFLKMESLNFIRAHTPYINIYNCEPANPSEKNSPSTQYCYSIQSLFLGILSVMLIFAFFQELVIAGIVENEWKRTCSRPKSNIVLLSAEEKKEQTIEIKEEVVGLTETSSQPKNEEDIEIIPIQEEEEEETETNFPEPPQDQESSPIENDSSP
# T5: cynomolgus monkey CD20 on B cells (cynomolgus monkey, UniProt M4ZHZ6 1-297)
# T5 construct: whole, on cells
# T5 sequence: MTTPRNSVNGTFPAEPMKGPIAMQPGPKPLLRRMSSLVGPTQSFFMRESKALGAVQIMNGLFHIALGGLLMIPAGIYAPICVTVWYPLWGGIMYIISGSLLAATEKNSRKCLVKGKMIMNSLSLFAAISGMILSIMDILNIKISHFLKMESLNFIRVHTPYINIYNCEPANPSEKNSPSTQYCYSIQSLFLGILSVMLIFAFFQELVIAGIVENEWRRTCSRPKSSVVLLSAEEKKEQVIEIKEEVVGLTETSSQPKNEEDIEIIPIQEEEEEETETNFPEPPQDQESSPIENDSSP
# B1: C923B74 CD79bxCD20xCD3 trispecific antibody (other)
# heavy: QVQLQQSGPGLVKPSQTLSLTCAISGDSVSSNSATWNWIRQSPSRGLEWLGRTYYRSKWYNDYTVSVKSRITINPDTSKNQFSLQLNSVTPEDTAVYYCTRVDIAFDYWGQGTLVTVSSASTKGPSVFPLAPSSKSTSGGTAALGCLVKDYFPEPVTVSWNSGALTSGVHTFPAVLQSSGLYSLSSVVTVPSSSLGTQTYICNVNHKPSNTKVDKKVEPKSCDKTHTCPPCPAPEAAGGPSVFLFPPKPKDTLMISRTPEVTCVVVSVSHEDPEVKFNWYVDGVEVHNAKTKPREEQYNSTYRVVSVLTVLHQDWLNGKEYKCKVSNKALPAPIEKTISKAKGQPREPQVYTLPPSREEMTKNQVSLSCAVKGFYPSDIAVEWESNGQPENNYKTTPPVLDSDGSFFLVSKLTVDKSRWQQGNVFSCSVMHEALHNRFTQKSLSLSPGK
# light: QTVVTQPPSVSEAPRQRVTISCSGSSSNIGNHGVNWYQQLPGKAPKLLIYNDDLLPSGVSDRFSGSTSGTSGSLAISGLQSEDEADYYCAAWDDSLNGVVFGGGTKLTVLGQPKAAPSVTLFPPSSEELQANKATLVCLISDFYPGAVTVAWKADSSPVKAGVETTTPSKQSNNKYAASSYLSLTPEQWKSHRSYSCQVTHEGSTVEKTVAPTECS
# chain: EIVLTQSPATLSASPGERVTLSCSASSSVSYMNWYQQKPGQAPRRWIYDSSKLASGVPARFSGSGSGRDYTLTISSLEPEDFAVYYCQQWSRNPPTFGGGTKVEIKGGSEGKSSGSGSESKSTGGSQVQLVQSGAEVKKPGSSVKVSCKASGYTFTRSTMHWVKQAPGQGLEWIGYINPSSAYTNYNQKFQGRVTLTADKSTSTAYMELSSLRSEDTAVYYCASPQVHYDYAGFPYWGQGTLVTVSSEPKSSDKTHTCPPCPAPEAAGGPSVFLFPPKPKDTLMISRTPEVTCVVVSVSHEDPEVKFNWYVDGVEVHNAKTKPREEQYNSTYRVVSVLTVLHQDWLNGKEYKCKVSNKALPAPIEKTISKAKGQPREPQVYTLPPSREEMTKNQVSLWCLVKGFYPSDIAVEWESNGQPENNYKTTPPVLDSDGSFFLYSKLTVDKSRWQQGNVFSCSVMHEALHNHYTQKSLSLSPGKGGSEGKSSGSGSESKSTGGSAIQLTQSPSSLSASVGDRVTITCRASSSVSYIHWFQQKPGKAPKPLIYATSNLASGVPSRFSGSGSGTDFTLTISSLQPEDFATYYCQQWTSNPPTFGQGTKLEIKGGSEGKSSGSGSESKSTGGSQVQLVQSGAEVKKPGSSVKVSCKASGYTFTSYNMHWVRQAPGQGLEWMGAIYPGNGDTSYAQKFQGRVTITADKSTSTAYMELSSLRSEDTAVYYCARSTYYGGDWYFNVWGQGTLVTVSS
# notes: Trispecific IgG1; also called CD9B330-N31S / CD3B2030-N106A-scFv-LH-C20B22
# B2: C923B38 CD79bxCD20xCD3 trispecific antibody (other)
# heavy: QVQLQESGPGLVKPSETLSLTCSVSGASISSFYWSWIRQPADEGLEWIGRISPSGKTNYIPSLKSRIIMSLDASKNQFSLRLNSVTAADTAMYYCARGEYSGTYSYSFDVWGQGTMVTVSSASTKGPSVFPLAPSSKSTSGGTAALGCLVKDYFPEPVTVSWNSGALTSGVHTFPAVLQSSGLYSLSSVVTVPSSSLGTQTYICNVNHKPSNTKVDKKVEPKSCDKTHTCPPCPAPEAAGGPSVFLFPPKPKDTLMISRTPEVTCVVVSVSHEDPEVKFNWYVDGVEVHNAKTKPREEQYNSTYRVVSVLTVLHQDWLNGKEYKCKVSNKALPAPIEKTISKAKGQPREPQVYTLPPSREEMTKNQVSLSCAVKGFYPSDIAVEWESNGQPENNYKTTPPVLDSDGSFFLVSKLTVDKSRWQQGNVFSCSVMHEALHNRFTQKSLSLSPGK
# light: DIVMTQSPLSLSVTPGEPASISCRSSESLLDSEDGNTYLDWFLQKPGQSPQLLIYTLSYRASGVPDRFSGSGSDTDFTLHISSLEAEDVGLYYCMQRMEFPLTFGQGTKVEIKRTVAAPSVFIFPPSDEQLKSGTASVVCLLNNFYPREAKVQWKVDNALQSGNSQESVTEQDSKDSTYSLSSTLTLSKADYEKHKVYACEVTHQGLSSPVTKSFNRGEC
# chain: EIVLTQSPATLSASPGERVTLSCSASSSVSYMNWYQQKPGQAPRRWIYDSSKLASGVPARFSGSGSGRDYTLTISSLEPEDFAVYYCQQWSRNPPTFGGGTKVEIKGGSEGKSSGSGSESKSTGGSQVQLVQSGAEVKKPGSSVKVSCKASGYTFTRSTMHWVKQAPGQGLEWIGYINPSSAYTNYNQKFQGRVTLTADKSTSTAYMELSSLRSEDTAVYYCASPQVHYDYAGFPYWGQGTLVTVSSEPKSSDKTHTCPPCPAPEAAGGPSVFLFPPKPKDTLMISRTPEVTCVVVSVSHEDPEVKFNWYVDGVEVHNAKTKPREEQYNSTYRVVSVLTVLHQDWLNGKEYKCKVSNKALPAPIEKTISKAKGQPREPQVYTLPPSREEMTKNQVSLWCLVKGFYPSDIAVEWESNGQPENNYKTTPPVLDSDGSFFLYSKLTVDKSRWQQGNVFSCSVMHEALHNHYTQKSLSLSPGKGGSEGKSSGSGSESKSTGGSAIQLTQSPSSLSASVGDRVTITCRASSSVSYIHWFQQKPGKAPKPLIYATSNLASGVPSRFSGSGSGTDFTLTISSLQPEDFATYYCQQWTSNPPTFGQGTKLEIKGGSEGKSSGSGSESKSTGGSQVQLVQSGAEVKKPGSSVKVSCKASGYTFTSYNMHWVRQAPGQGLEWMGAIYPGNGDTSYAQKFQGRVTITADKSTSTAYMELSSLRSEDTAVYYCARSTYYGGDWYFNVWGQGTLVTVSS
# notes: Trispecific IgG1: CD79b Fab arm (HC1/LC) plus one chain CD3 scFv-Fc-CD20 scFv; also called CD9B374 / CD3B2030-N106A-scFv-LH-C20B22
# B3: C20B648 anti-CD20 binder (antibody, V domains shown)
# VH: QVQLVQSGAEVKKPGSSVKVSCKASGYTFSSYNMHWVRQAPGQGLEWMGAIYPGAGDTSYAQKFQGRVTITADESTSTAYMELSSLRSEDTAVYYCARSNYYGSSGWYFDVWGKGTTVTVSS
# VL: EIVLTQSPATLSLSPGERATLSCRASLSVSSMHWYQQKPGQAPRLLIYATSNLASGIPARFSGSGSGTDFTLTISSLEPEDFAVYYCQQWIFNPPTFGGGTKVEIK
# Assays:
# [1] = molecular target: T1, human CD79b and CD20 co-expressed on …; assay: cell-based or functional assay
# [2] = molecular target: T1, human CD79b and CD20 co-expressed on …; assay: cell-based or functional assay; remark: listed apart in the source
# [3] = molecular target: T1, human CD79b and CD20 co-expressed on …; assay: cell-based or functional assay; remark: listed apart in the source
# [4] = molecular target: T1, human CD79b and CD20 co-expressed on …; assay: cell-based or functional assay; remark: listed apart in the source
# [5] = molecular target: T1, human CD79b and CD20 co-expressed on …; assay: cell-based or functional assay; remark: listed apart in the source
# [6] = molecular target: T1, human CD79b and CD20 co-expressed on …; assay: cell-based or functional assay; remark: listed apart in the source
# [7] = molecular target: T6, cynomolgus monkey CD79b antigen (cynomolgus monkey); assay: SPR Biacore 8k, cyno CD79b injected up to 3000 nM
# T6 construct: also called cyno CD79b; CD9W1.001
# Outline: (§1)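 Antibodies captured on anti-human Fc C1 chip, CD79b extracellular domain injected in HBSP+ at 25 °C; association 2 or 3 min, dissociation 30 min. Double-referenced sensorgrams fitted to a 1:1 Langmuir model for on-rate, off-rate and affinity.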
# [8] = molecular target: T2, recombinant extracellular domain of …; assay: SPR Biacore 8k, antibody captured by anti-Fc, 25 C
# Outline: as §1
# [9] = molecular target: T3, recombinant extracellular domain of …; assay: SPR Biacore 8k, antibody captured by anti-Fc, 25 C
# Outline: as §1
# [10] = molecular target: T1, human CD79b and CD20 co-expressed on …; assay: flow cytometry, HBL-1 cells (CD79b+ CD20+), 1 h 37 C
# Procedure: (§2) All cells were washed with BD stain buffer (BD Biosciences; Cat #554657), centrifuged at 1200 RPM for 3 minutes, with supernatant discarded. Cells were then stained for 20 minutes at 4° C. with BD stain buffer containing AlexaFluor 647 labeled anti-human IgG secondary antibody (Jackson Immuno; Cat #109-606-098) at a 1:200 dilution along with Aqua Fixable Live/Dead stain (Invitrogen; Cat #L34957) at a 1:400 dilution. All cells were washed with BD stain buffer (BD Biosciences; Cat #554657), centrifuged at 1200 RPM for 3 mins, with supernatant discarded. Cells were analyzed using Intellicyt (Sartorius) flow cytometer and mean fluorescent intensity (MFI) was generated using Forcyt software (Sartorius). MFI was graphed and EC50 values generated using GraphPad PRISM v.8. Dose response curves were generated by transforming the x axis values using the formula […]. Data was then graphed using non-linear regression curve fit analysis “log(agonist) vs. response-variable slope (four parameter)”.
# [11] = molecular target: T1, human CD79b and CD20 co-expressed on …; assay: flow cytometry, Carnaval cells (CD79b+ CD20+), 1 h 37 C
# Procedure: as §2
# [12] = molecular target: T1, human CD79b and CD20 co-expressed on …; assay: flow cytometry, OCI-LY10 cells (CD79b+ CD20+), 1 h 37 C
# Procedure: as §2
# [13] = molecular target: T6, cynomolgus monkey CD79b antigen; assay: SPR
# [14] = molecular target: T4, human CD20 on the cell surface; assay: flow cytometry, human B cells
# [15] = molecular target: T5, cynomolgus monkey CD20 on B cells; assay: flow cytometry, cynomolgus B cells
binder,measurement,setting,value
B1,"IC50, T-cell killing of HBL-1 (Incucyte)",[1],0.346 nM
same,"IC50, T-cell killing of OCI-Ly10 (Incucyte)",[2],25.6 nM
same,"IC50, CARNAVAL killing (Incucyte)",[3],0.741 nM
same,"IC50, Daudi killing (Incucyte)",[4],0.1 nM
same,"IC50, CARNAVAL killing, 72 h (FACS)",[5],0.35 nM
same,"IC50, HBL-1 killing, 72 h (FACS)",[5],2.42 nM
same,"IC50, OCI-LY10 killing, 72 h (FACS)",[5],24.2 nM
same,"Cmax (maximum cytotoxicity), donor 1",[6],34%
same,"Cmax (maximum cytotoxicity), donor 2",[6],66%
same,"Cmax (maximum cytotoxicity), donor 3",[6],40%
same,"EC50, autologous B-cell depletion, donor 1",[6],78 nM
same,"EC50, autologous B-cell depletion, donor 2",[6],23 nM
same,Kd,[7],> 3000 nM
same,Kd,[8],0.39 nM
same,Kd,[9],0.023 nM
same,EC50,[10],52 nM
same,EC50,[11],23 nM
same,EC50,[12],66 nM
B2,Kd,[13],> 3000 nM
B3,binding result,[14],binds
same,binding result,[15],binds

# From patent US20250043019A1 (Janssen / Centocor, published 2025)
